Results as given in patent US20210388087A1 (Chugai, published 2021).

T1: Human CD3eg linker (human)
T1 construct: Single chain: epsilon and gamma subunits of human CD3 joined by a 29-mer linker, Flag-tag at the C-terminus; also called recombinant human CD3
T1 chain: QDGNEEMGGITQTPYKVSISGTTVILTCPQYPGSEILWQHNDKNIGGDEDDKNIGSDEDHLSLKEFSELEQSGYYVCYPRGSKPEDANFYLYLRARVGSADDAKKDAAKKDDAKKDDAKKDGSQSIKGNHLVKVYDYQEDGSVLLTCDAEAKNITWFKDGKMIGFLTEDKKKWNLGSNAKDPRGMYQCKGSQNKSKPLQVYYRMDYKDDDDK


Molecular target: T1, Human CD3eg linker
Experiment: Biacore SPR, vs template H183/L072

| Binder | fold change of affinity |
| --- | --- |
| H183/L072 VH Q50Y (antibody, name in Kabat numbering, V domains shown) VH: QVQLVESGGGLVQPGRSLRLSCAASGFTFSNAWMHWVRQAPGKGLEWVAYIKDKGNAYAAYYAPSVKGRFTISRDDSKNSIYLQMNSLKTEDTAVYYCHYVHYASASTVLPAFGVDAWGQGTTVTVSS VL: DIVMTQSPLSLPVTPGEPASISCQASQELVHMNRNTYLHWYQQKPGQAPRLLIYKVSNRFPGVPDRFSGSGSGTDFTLKISRVEAEDVGVYYCAQGTSVPFTFGQGTKLEIK | 0.9 fold |
| H183/L072 VH S30N (antibody, name in Kabat numbering, V domains shown) VH: QVQLVESGGGLVQPGRSLRLSCAASGFTFNNAWMHWVRQAPGKGLEWVAQIKDKGNAYAAYYAPSVKGRFTISRDDSKNSIYLQMNSLKTEDTAVYYCHYVHYASASTVLPAFGVDAWGQGTTVTVSS VL: DIVMTQSPLSLPVTPGEPASISCQASQELVHMNRNTYLHWYQQKPGQAPRLLIYKVSNRFPGVPDRFSGSGSGTDFTLKISRVEAEDVGVYYCAQGTSVPFTFGQGTKLEIK | 0.7 fold |
| H183/L072 VH S30Q (antibody, name in Kabat numbering, V domains shown) VH: QVQLVESGGGLVQPGRSLRLSCAASGFTFQNAWMHWVRQAPGKGLEWVAQIKDKGNAYAAYYAPSVKGRFTISRDDSKNSIYLQMNSLKTEDTAVYYCHYVHYASASTVLPAFGVDAWGQGTTVTVSS VL: DIVMTQSPLSLPVTPGEPASISCQASQELVHMNRNTYLHWYQQKPGQAPRLLIYKVSNRFPGVPDRFSGSGSGTDFTLKISRVEAEDVGVYYCAQGTSVPFTFGQGTKLEIK | 0.8 fold |
| H183/L072 VH S62A (antibody, name in Kabat numbering, V domains shown) VH: QVQLVESGGGLVQPGRSLRLSCAASGFTFSNAWMHWVRQAPGKGLEWVAQIKDKGNAYAAYYAPAVKGRFTISRDDSKNSIYLQMNSLKTEDTAVYYCHYVHYASASTVLPAFGVDAWGQGTTVTVSS VL: DIVMTQSPLSLPVTPGEPASISCQASQELVHMNRNTYLHWYQQKPGQAPRLLIYKVSNRFPGVPDRFSGSGSGTDFTLKISRVEAEDVGVYYCAQGTSVPFTFGQGTKLEIK | 1.4 fold |
| H183/L072 VH S30W (antibody, name in Kabat numbering, V domains shown) VH: QVQLVESGGGLVQPGRSLRLSCAASGFTFWNAWMHWVRQAPGKGLEWVAQIKDKGNAYAAYYAPSVKGRFTISRDDSKNSIYLQMNSLKTEDTAVYYCHYVHYASASTVLPAFGVDAWGQGTTVTVSS VL: DIVMTQSPLSLPVTPGEPASISCQASQELVHMNRNTYLHWYQQKPGQAPRLLIYKVSNRFPGVPDRFSGSGSGTDFTLKISRVEAEDVGVYYCAQGTSVPFTFGQGTKLEIK | 1.3 fold |
| H183/L072 VH S30F (antibody, name in Kabat numbering, V domains shown) VH: QVQLVESGGGLVQPGRSLRLSCAASGFTFFNAWMHWVRQAPGKGLEWVAQIKDKGNAYAAYYAPSVKGRFTISRDDSKNSIYLQMNSLKTEDTAVYYCHYVHYASASTVLPAFGVDAWGQGTTVTVSS VL: DIVMTQSPLSLPVTPGEPASISCQASQELVHMNRNTYLHWYQQKPGQAPRLLIYKVSNRFPGVPDRFSGSGSGTDFTLKISRVEAEDVGVYYCAQGTSVPFTFGQGTKLEIK | 1 fold |
| H183/L072 VH S30K (antibody, name in Kabat numbering, V domains shown) VH: QVQLVESGGGLVQPGRSLRLSCAASGFTFKNAWMHWVRQAPGKGLEWVAQIKDKGNAYAAYYAPSVKGRFTISRDDSKNSIYLQMNSLKTEDTAVYYCHYVHYASASTVLPAFGVDAWGQGTTVTVSS VL: DIVMTQSPLSLPVTPGEPASISCQASQELVHMNRNTYLHWYQQKPGQAPRLLIYKVSNRFPGVPDRFSGSGSGTDFTLKISRVEAEDVGVYYCAQGTSVPFTFGQGTKLEIK | 0.9 fold |
| H183/L072 VH S30D (antibody, name in Kabat numbering, V domains shown) VH: QVQLVESGGGLVQPGRSLRLSCAASGFTFDNAWMHWVRQAPGKGLEWVAQIKDKGNAYAAYYAPSVKGRFTISRDDSKNSIYLQMNSLKTEDTAVYYCHYVHYASASTVLPAFGVDAWGQGTTVTVSS VL: DIVMTQSPLSLPVTPGEPASISCQASQELVHMNRNTYLHWYQQKPGQAPRLLIYKVSNRFPGVPDRFSGSGSGTDFTLKISRVEAEDVGVYYCAQGTSVPFTFGQGTKLEIK | 1 fold |
| H183/L072 VH S30T (antibody, name in Kabat numbering, V domains shown) VH: QVQLVESGGGLVQPGRSLRLSCAASGFTFTNAWMHWVRQAPGKGLEWVAQIKDKGNAYAAYYAPSVKGRFTISRDDSKNSIYLQMNSLKTEDTAVYYCHYVHYASASTVLPAFGVDAWGQGTTVTVSS VL: DIVMTQSPLSLPVTPGEPASISCQASQELVHMNRNTYLHWYQQKPGQAPRLLIYKVSNRFPGVPDRFSGSGSGTDFTLKISRVEAEDVGVYYCAQGTSVPFTFGQGTKLEIK | 1.1 fold |
| H183/L072 VH S30E (antibody, name in Kabat numbering, V domains shown) VH: QVQLVESGGGLVQPGRSLRLSCAASGFTFENAWMHWVRQAPGKGLEWVAQIKDKGNAYAAYYAPSVKGRFTISRDDSKNSIYLQMNSLKTEDTAVYYCHYVHYASASTVLPAFGVDAWGQGTTVTVSS VL: DIVMTQSPLSLPVTPGEPASISCQASQELVHMNRNTYLHWYQQKPGQAPRLLIYKVSNRFPGVPDRFSGSGSGTDFTLKISRVEAEDVGVYYCAQGTSVPFTFGQGTKLEIK | 0.6 fold |

Next, values leading:

| fold change of affinity | Binder |
| --- | --- |
| 1 fold | H183/L072 VH S30H (antibody, name in Kabat numbering, V domains shown) VH: QVQLVESGGGLVQPGRSLRLSCAASGFTFHNAWMHWVRQAPGKGLEWVAQIKDKGNAYAAYYAPSVKGRFTISRDDSKNSIYLQMNSLKTEDTAVYYCHYVHYASASTVLPAFGVDAWGQGTTVTVSS VL: DIVMTQSPLSLPVTPGEPASISCQASQELVHMNRNTYLHWYQQKPGQAPRLLIYKVSNRFPGVPDRFSGSGSGTDFTLKISRVEAEDVGVYYCAQGTSVPFTFGQGTKLEIK |
| 0.3 fold | H183/L072 VH S30P (antibody, name in Kabat numbering, V domains shown) VH: QVQLVESGGGLVQPGRSLRLSCAASGFTFPNAWMHWVRQAPGKGLEWVAQIKDKGNAYAAYYAPSVKGRFTISRDDSKNSIYLQMNSLKTEDTAVYYCHYVHYASASTVLPAFGVDAWGQGTTVTVSS VL: DIVMTQSPLSLPVTPGEPASISCQASQELVHMNRNTYLHWYQQKPGQAPRLLIYKVSNRFPGVPDRFSGSGSGTDFTLKISRVEAEDVGVYYCAQGTSVPFTFGQGTKLEIK |
| 0.8 fold | H183/L072 VH S30I (antibody, name in Kabat numbering, V domains shown) VH: QVQLVESGGGLVQPGRSLRLSCAASGFTFINAWMHWVRQAPGKGLEWVAQIKDKGNAYAAYYAPSVKGRFTISRDDSKNSIYLQMNSLKTEDTAVYYCHYVHYASASTVLPAFGVDAWGQGTTVTVSS VL: DIVMTQSPLSLPVTPGEPASISCQASQELVHMNRNTYLHWYQQKPGQAPRLLIYKVSNRFPGVPDRFSGSGSGTDFTLKISRVEAEDVGVYYCAQGTSVPFTFGQGTKLEIK |
| 0.8 fold | H183/L072 VH S30A (antibody, name in Kabat numbering, V domains shown) VH: QVQLVESGGGLVQPGRSLRLSCAASGFTFANAWMHWVRQAPGKGLEWVAQIKDKGNAYAAYYAPSVKGRFTISRDDSKNSIYLQMNSLKTEDTAVYYCHYVHYASASTVLPAFGVDAWGQGTTVTVSS VL: DIVMTQSPLSLPVTPGEPASISCQASQELVHMNRNTYLHWYQQKPGQAPRLLIYKVSNRFPGVPDRFSGSGSGTDFTLKISRVEAEDVGVYYCAQGTSVPFTFGQGTKLEIK |
| 0.8 fold | H183/L072 VH S30L (antibody, name in Kabat numbering, V domains shown) VH: QVQLVESGGGLVQPGRSLRLSCAASGFTFLNAWMHWVRQAPGKGLEWVAQIKDKGNAYAAYYAPSVKGRFTISRDDSKNSIYLQMNSLKTEDTAVYYCHYVHYASASTVLPAFGVDAWGQGTTVTVSS VL: DIVMTQSPLSLPVTPGEPASISCQASQELVHMNRNTYLHWYQQKPGQAPRLLIYKVSNRFPGVPDRFSGSGSGTDFTLKISRVEAEDVGVYYCAQGTSVPFTFGQGTKLEIK |
| 0.8 fold | H183/L072 VH S30R (antibody, name in Kabat numbering, V domains shown) VH: QVQLVESGGGLVQPGRSLRLSCAASGFTFRNAWMHWVRQAPGKGLEWVAQIKDKGNAYAAYYAPSVKGRFTISRDDSKNSIYLQMNSLKTEDTAVYYCHYVHYASASTVLPAFGVDAWGQGTTVTVSS VL: DIVMTQSPLSLPVTPGEPASISCQASQELVHMNRNTYLHWYQQKPGQAPRLLIYKVSNRFPGVPDRFSGSGSGTDFTLKISRVEAEDVGVYYCAQGTSVPFTFGQGTKLEIK |
| 0.8 fold | H183/L072 VH S30V (antibody, name in Kabat numbering, V domains shown) VH: QVQLVESGGGLVQPGRSLRLSCAASGFTFVNAWMHWVRQAPGKGLEWVAQIKDKGNAYAAYYAPSVKGRFTISRDDSKNSIYLQMNSLKTEDTAVYYCHYVHYASASTVLPAFGVDAWGQGTTVTVSS VL: DIVMTQSPLSLPVTPGEPASISCQASQELVHMNRNTYLHWYQQKPGQAPRLLIYKVSNRFPGVPDRFSGSGSGTDFTLKISRVEAEDVGVYYCAQGTSVPFTFGQGTKLEIK |
| 1.2 fold | H183/L072 VH S30Y (antibody, name in Kabat numbering, V domains shown) VH: QVQLVESGGGLVQPGRSLRLSCAASGFTFYNAWMHWVRQAPGKGLEWVAQIKDKGNAYAAYYAPSVKGRFTISRDDSKNSIYLQMNSLKTEDTAVYYCHYVHYASASTVLPAFGVDAWGQGTTVTVSS VL: DIVMTQSPLSLPVTPGEPASISCQASQELVHMNRNTYLHWYQQKPGQAPRLLIYKVSNRFPGVPDRFSGSGSGTDFTLKISRVEAEDVGVYYCAQGTSVPFTFGQGTKLEIK |
| 1.1 fold | H183/L072 VH S30G (antibody, name in Kabat numbering, V domains shown) VH: QVQLVESGGGLVQPGRSLRLSCAASGFTFGNAWMHWVRQAPGKGLEWVAQIKDKGNAYAAYYAPSVKGRFTISRDDSKNSIYLQMNSLKTEDTAVYYCHYVHYASASTVLPAFGVDAWGQGTTVTVSS VL: DIVMTQSPLSLPVTPGEPASISCQASQELVHMNRNTYLHWYQQKPGQAPRLLIYKVSNRFPGVPDRFSGSGSGTDFTLKISRVEAEDVGVYYCAQGTSVPFTFGQGTKLEIK |
| 0.7 fold | H183/L072 VH S30M (antibody, name in Kabat numbering, V domains shown) VH: QVQLVESGGGLVQPGRSLRLSCAASGFTFMNAWMHWVRQAPGKGLEWVAQIKDKGNAYAAYYAPSVKGRFTISRDDSKNSIYLQMNSLKTEDTAVYYCHYVHYASASTVLPAFGVDAWGQGTTVTVSS VL: DIVMTQSPLSLPVTPGEPASISCQASQELVHMNRNTYLHWYQQKPGQAPRLLIYKVSNRFPGVPDRFSGSGSGTDFTLKISRVEAEDVGVYYCAQGTSVPFTFGQGTKLEIK |
